According to the DeepSol protein solubility set:

Test: soluble on expression in E. coli; label from the status in PepcDB or PDB records

| Sequence | soluble on expression in E. coli |
| --- | --- |
| MNYELLTTENAPVKMWTKGVPVEADARQQLINTAKMPFIFKHIAVMPDVHLGKGSTIGSVIPTKGAIIPAAVGVDIGCGMNALRTALTAADLPENLAELRQAIETAVPHGRTTGRCKRDKGAWENPPFNVDAKWAELEAGYQWLTQKYPRFLNTNNYKHLGTLGTGNHFIEICLDESEQVWIMLHSGSRGIGNAIGTYFIDLAQKEMQDQLETLPSRDLAYFMEGTEYFDDYLRAVAWAQLFASLNRDAMMENVVTALQSITQKTVRQPQTLAMEEINCHHNYVQKEQLFGEEIYVTRKGAVSARAGQYGIIPGSMGAKSFIVRGLGNEESFCSCSHGAGRVMSRTKAKKLFSVEDQIRATAHVECRKDAEVIDEIPMAYKDIDAVMAAQSDLVEVIYTLRQVVCVKGLEHHHHHH | soluble |
| MNYNSKMEPLAIPEYGRNIQNMVNYCMTIGDRDERNRCAQTIITIMGNMFPERRENSETKHILWDHLAIMSGFKLDIDYPMEIISPELLERKPKAVSYSANDIVYRHYGHLIQEMILKACAMEQGEERYALELLIANQMKRSYLTWNKDTVDDYKIFKDLYELSEGRIELTEESCHLTIPNASDRKDNNNTKRNKVFRRK | not soluble |
| MNYWLMKSEPDEFSIEDLKARPNQTEPWFGIRNYQARNYMRDAMQIGDKVFFYHSSCKVPGIVGIAEVVTNAYPDSTAFDPESTYFDPKSDPSNPRWLRVDIRFVEQFKEIIPLSLIKSLPQLADMYLVSKGSRLSIQPVTAEQWQAVLMLSRLEHHHHHH | soluble |
| MPAAPLCSPFPSPPPSFHTASLPFSIHAHHSPLPCDLDPPLYLAETVSLLEEWGPPSSCPMQCKLTSHPARLTHLPPCLWGFAVALKPSWAGLAPSLLPPPRMSLCRPLSFLRHQCPWLPWQAHQGLVPWSPSMVAAACIVSPSGHCRCQPFIPHVFLGHGGLTSVSGECG | soluble |
| MPAIKSSADLRNNYNEISTFCHNYPEPVFITKNGKGDLAVMSIEAYEGLTSRFELYSQIKEGMDDIATGNTRPFSEAMADIRSRRSRLEHHHHHH | not soluble |
| MPASSTSSPSSKEEDEKHTSADEDVTPTASPSLVKSEVVKEEENDDADRTLTMPSTSQDIQPESSPAHGRSAPSSQEITSPPTVRRVATPLEAAEQEYYYFTTDMINQAALDIEREKEKFDSLITWYKLQRDDVPALGTSSVGNSTAPSYVSEKGSTTPMSSQPSSHQSGTSSTNGAHGGLNGFSCSPFGLENNPRSNDPMQCMSSPVELDEICPTLEDFMSSAASSSTPSTSSAPQMNQNQNTHPNSINHHHQPDTSLLMLNNHHSSPLNQLSFNHQMPSTSNSNPPSNASLKRRATEEFGNDGPMKQAKIEGSENDNNPMRKLEMMANSSNFRGGNTINEVVEASKKDERTLKMEKLDVIGKSVGEEFAQQAREAQMRQMQQAAAAAGSMPPSYPSPGQYPGPMHYPGMPPMMPPGAPFSAGASYPPMGGPFPPNPYGMHPGMTPGGYPMSAPGKMPFGSPSFPQSAPSPAAMAAMQQGRMPGPPMPPHMMTPQQQQHFMQMQQAQMAHFNAQKAAAAAAAAGMSPAARASPMGASPSPHHPHPSQFPPNHPANPMYHHHIMMMRAMHAQGGQPGHPGMMPPGMMPPGMMPPGMMPPGMHPGMAGMPPMHPGMQGMPPMHPGMQGMPGMPHGPPQPPQNPALMVAGNRAGSAEAAAAQMGNPHHPMMGANMWQLTPHYPPPLPASSSSGAGTPVSR | not soluble |
| MPDDEKIKLRYSPEESARLIKEEARRLGFSACGFAEAQALPPSVVGTYEKFLSEGRHGEMDYLERNRELRYSPAELLPGTRTVISVALNYYPKIKQPASAPQIAYYAYGKDYHKVVKRLLDKLLDYIRREVCPSVSGRSFSDSAPIAERYWACRAGIGWVGRSGMLILPRGGTFFFLGELLVDIDLPPDAPMPSRCGACRNCIESCPTGAISEEGMDSRLCVSYLTIEHEGEIPPELVGKLGNRFYGCDSCQLCCPWNRYAHPSEVEAFVPREALFTFDRDDLVSLDEEKYLHFFAGSPMKRAGLDGLRRNARALEQGDKKEDEQPTDEDG | not soluble |
| MPDVPETVGTPDGSTEFEHRPTTDQSFENALAKARNGTRLTVDDAVELFTTGTDRDGIDHDRKEQVLEAADRRRAEVVGDEVTFVANLNNNVTTACNTGCLFCNFKDRSEQFRSDYQEDHGGFTKTPSESRQIVQDALDRGIYEVCSVSGLHPALALDTEHREILETSDRGDLNYRSPDEYETDPATYCEQLDAMNVGDIHLHSMTPEEAYHARRGTDWSYEEVFSRLQDAGLDSVPGTAAEILVDEVRDVICPGKIRTDEWLEAMAAAASVGLDMTSTMMYGHVENEYHRALHLQRIRDLQDRTGAITEFVPLSFVHEETPLYERGMVDGGATVDEDELMIAVSRLFLDNVDHIQASWVKYGDTQGLKMLTCGADDFMGTILSEEITKRAGGDYGEFRSFQEYADMITAIGRTPVERSTDYEQRRVIDPDADVLGPQLGPRADGTPLLD | not soluble |
| MPEFRVWAPKPALVRLDVNGAVHAMTRSADGWWHTTVAAPADARYGYLLDDDPTVLPDPRSARQPDGVHARSQRWEPPGQFGAARTDTGWPGRSVEGAVIYELHIGTFTTAGTFDAAIEKLDYLVDLGIDFVELMPVNSFAGTRGWGYDGVLWYSVHEPYGGPDGLVRFIDACHARRLGVLIDAVFNHLGPSGNYLPRFGPYLSSASNPWGDGINIAGADSDEVRHYIIDCALRWMRDFHADGLRLDAVHALVDTTAVHVLEELANATRWLSGQLGRPLSLIAETDRNDPRLITRPSHGGYGITAQWNDDIHHAIHTAVSGERQGYYADFGSLATLAYTLRNGYFHAGTYSSFRRRRHGRALDTSAIPATRLLAYTCTHDQVGNRALGDRPSQYLTGGQLAIKAALTLGSPYTAMLFMGEEWGASSPFQFFCSHPEPELAHSTVAGRKEEFAEHGWAADDIPDPQDPQTFQRCKLNWAEAGSGEHARLHRFYRDLIALRHNEADLADPWLDHLMVDYDEQQRWVVMRRGQLMIACNLGAEPTCVPVSGELVLAWESPIIGDNSTELAAYSLAILRAAEPA | not soluble |
| MPEIIGKLLKSDGKVVSEIEKQVSQALIDLETNDDVQSQLKELYIVGVKEVELGNKSAIIIYVPVPQLKAFHKIHPALVRELEKKFGGRDILILAKRRILPKPQRGSKARPQKQKRPRSRTLTAVHDAWLDELVYPAEVVGRRIRVKLDGKKVYKVHLDKSHQTNVGHKIGVFASVYRKLTGKDVTFEFPDPIF | not soluble |
| MPEILKVKPTRMELLKLKRRVKLAERGHKLLKEKQDALIMEFFTIYDEALSMRRELIKKIGEAFEALRLAQVEVGSVRLKEIAIGVNPNKEIEVRSRNIMGVRVPLIEVPELKRKPSERGYAFISTSSAVDVAAEKFEEVLELAIRLAEVEESLKRLGKEIEKTKRRVNALEYIIIPRMKNTIKFIEQHLDEMERENFFRLKRIKALLEARESMLEHHHHHH | not soluble |
| MPEISRDEVAHLAKLSRLALTDEELDRFAEQIDGIIGNVSAVQQVAAEGVEPMSHPHSIKTTMREDVVEQILTPEQALDQAPAVDQQRFVVPQILGEQD | not soluble |
| MPEPTKKEEPSKEKEAGTTPAKDWTLVETPPGEEQAKQNANSQLSILFIEKPQGGTVKVGEDITFIAKVKAEDLLRKPTIKWFKGKWMDLASKAGKHLQLKETFERHSRVYTFEMQIIKAKDNFAGNYRCEVTYKDKFDSCSFDLEVHESTGTTPNIDIRSAFKRSGEGQEDAGELDFSGLLKRREVKQQEEEPQVDVWELLKNAKPSEYEKIAFQYGITDLRGMLKRLKRMRREEKKSAAFAKILDPAYQVDKGGRVRFVVELADPKLEVKWYKNGQEIRPSTKYIFEHKGCQRILFINNCQMTDDSEYYVTAGDEKCSTELFVREPPIMVTKQLEDTTAYCGERVELECEVSEDDANVKWFKNGEEIIPGPKSRYRIRVEGKKHILIIEGATKADAAEYSVMTTGGQSSAKLSVDLKPLKILTPLTDQTVNLGKEICLKCEISENIPGKWTKNGLPVQESDRLKVVQKGRIHKLVIANALTEDEGDYVFAPDAYNVTLPAKVHVIDPPKIILDGLDADNTVTVIAGNKLRLEIPISGEPPPKAMWSRGDKAIMEGSGRIRTESYPDSSTLVIDIAERDDSGVYHINLKNEAGEAHASIKVKVVDFPDPPVAPTVTEVGDDWCIMNWEPPAYDGGSPILGYFIERKKKQSSRWMRLNFDLCKETTFEPKKMIEGVAYEVRIFAVNAIGISKPSMPSRPFVPLAVTSPPTLLTVDSVTDTTVTMRWRPPDHIGAAGLDGYVLEYCFEGTEDWIVANKDLIDKTKFTITGLPTDAKIFVRVKAVNAAGASEPKYYSQPILVKEIIEPPKIRIPRHLKQTYIRRVGEAVNLVIPFQGKPRPELTWKKDGAEIDKNQINIRNSETDTIIFIRKAERSHSGKYDLQVKVDKFVETASIDIQIIDRPGPPQIVKIEDVWGENVALTWTPPKDDGNAAITGYTIQKADKKSMEWFTVIEHYHRTSATITELVIGNEYYFRVFSENMCGLSEDATMTKESAVIARDGKIYKNPVYEDFDFSEAPMFTQPLVNTYAIAGYNATLNCSVRGNPKPKITWMKNKVAIVDDPRYRMFSNQGVCTLEIRKPSPYDGGTYCCKAVNDLGTVEIECKLEVKV | soluble |
| MPERDALLTDLVGDRAAEWDTSGELPRDLLVRLGADGLLCAEVAAEHGGLGLGSRENGEFTAHVGSLCSSLRSVMTSQGMAAWTVQRLGDAGQRATFLKELTSGKLAAVGFSERQAGSDLSAMRTRVRLDGDTAVVDGHKVWTTAAAYADHLVVFGLQEDGSGAVVVVPADTPGVRVERVPKPSGCRAAGHADLHLDQVRVPAGAVLAGSGASLPMLVAASLAYGRKSVAWGCVGILRACRTAAVAHARTREQFGRPLGDHQLVAGHIADLWTAEQIAARVCEYASDHWDEGSPEMVPATILAKHVAAERAAAGAATAAQVLASAGAREGHVVERAYRDAKLMEIIEGSSEMCRVMLAQHALALPA | soluble |
| MPEVKTEKPHLLDMGKPQLRMVDLNLLTVFDAVMQEQNITRAAHTLGMSQPAVSNAVARLKVMFNDELFVRYGRGIQPTARAFQLFGSVRQALQLVQNELPGSGFEPTSSERVFNLCVCSPLDNILTSQIYNRVEKIAPNIHVVFKASLNQNTEHQLRYQETEFVISYEEFRRPEFTSVPLFKDEMVLVASRKHPRISGPLLEGDVYNEQHAVVSLDRYASFSQPWYDTPDKQSSVAYQGMALISVLNVVSQTHLVAIAPRWLAEEFAESLDLQILPLPLKLNSRTCYLSWHEAAGRDKGHQWMEDLLVSVCKR | not soluble |
| MPFEKYTVPVSGRSDAAIEEELTRLRAELAAEYDLREVVHRFGESDFTFLSVLDSYALLDRIDPAAFVKDEQMPYWAEIWPAAVTLSRQIVETGELAGKSVLELGAGVGMASIAAARSGARVLCTDYSTEALRFVAYNAMKNRVPLDTARLDWRMVKGAEKFDAVIAADVLYERVNLLPIVTAIDALLAPGGAAYIADPRRRLADQFLELVHENGFEVAETRMFDAEGDQTVAVTIYKLQRLKALEHHHHHH | soluble |
| MPGERFSHSRCHAIAIKELQRRTENRDGTALHILPKSQRKLAIFLINMDSATKRLTDMNARLDAMGLKAERVAGVNGRELQYPIPEFSEISYMLMHGRRTSPPEIGCYLSHVACANKFMTGDADIALILEDDVVFEDDFLDAIDEAVLNGNDWDILRLTTVSNGRKFAFRALSNGRSLAVALTREKGSGAYLVNRRAGKWISKLIPMRLAYDIAFDLEYLSGLKAAFIYPLCATQDADGESQIQNNLRIYRLPRWRYFTVLPYRAYLETSRFLLRGLRFLVAKAKVAMERGKPKAVQAGRLEHHHHHH | soluble |
| MPGIIYEGKGTNMEYADVFDSLVGDLKDDVLSLQLTNFDDVNHSYKSDGKCSMSVKDFDGYAENMPVKNVEYNGQKYIFMRSISDDAQPSQVFISVDGDERGRKRGMLITSFCGILRMISTFDYQIANSVTAKIFKVLGEYSCEEEE | not soluble |
| MPGQKQKGKKNVRRTKTRFELIEPSKGQLIAEVEDTHGGYPPRFSCKTVDGDIIIAPIQGSIMKGPKRVLVKKDNLVLLVPIDFTTGKEGTTSYYIHHVYTSEDRHQLEKKGFLEKKDKISDATKSTKVVFGVESSDKSLEKAKDEELDIDTI | not soluble |
